Source: patent publication US9696303

How the values were obtained:
[1] = biological target: HRP-labelled Concavalin A (UniProt P02866); assay: capillary displacement of HRP-labelled Concavalin A from immobilised yeast mannoprotein; platform of Example 4; HRP substrate, spectrophotometer
[2] = biological target: HRP-labelled Concavalin A (UniProt P02866); assay: capillary displacement of HRP-labelled Concavalin A from immobilised yeast mannoprotein; platform of Example 3; HRP substrate, spectrophotometer
[3] = biological target: HRP-labelled Concavalin A (UniProt P02866); assay: capillary displacement of HRP-labelled Concavalin A from immobilised yeast mannoprotein; platform of Example 2; HRP substrate, spectrophotometer

Chain of UniProt P02866 (P02866 30-281 limits assumed): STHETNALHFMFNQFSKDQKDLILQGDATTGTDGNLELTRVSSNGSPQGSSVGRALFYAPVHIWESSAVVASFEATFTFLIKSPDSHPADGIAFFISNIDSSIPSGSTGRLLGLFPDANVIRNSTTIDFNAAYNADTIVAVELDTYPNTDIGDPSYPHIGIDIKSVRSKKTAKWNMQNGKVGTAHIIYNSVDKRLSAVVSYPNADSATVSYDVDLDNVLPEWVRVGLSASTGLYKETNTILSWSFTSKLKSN

| absorbance at 446-456 nm (absorbance (446 nm)) [1] | absorbance at 446-456 nm (absorbance (446 nm)) [2] | absorbance at 446-456 nm (absorbance (456 nm)) [3] | absorbance at 446-456 nm (absorbance (448.5 nm)) [2] | Substance |
| --- | --- | --- | --- | --- |
| > 4 | 2.22 | 3 | – | polystyrene beads with immobilised yeast mannoprotein |
| 2.5 | – | – | 2.7 | yeast mannoprotein |
